Tests used:
[1] = biological target: mitochondrial transcription factor B2 (TFB2M) protein (human) (UniProt Q9H5Q4); test: in situ proximity ligation assay (anti-TFAM sc-376672 and anti-TFB2M 13676), fixed PBMCs from healthy controls (n=20), mean
[2] = biological target: mitochondrial transcription factor B2 (TFB2M) protein (human) (UniProt Q9H5Q4); test: in situ proximity ligation assay (anti-TFAM sc-376672 and anti-TFB2M 13676), fixed PBMCs from septic patients (n=10), mean

Sequence of UniProt Q9H5Q4 (Q9H5Q4 44-396): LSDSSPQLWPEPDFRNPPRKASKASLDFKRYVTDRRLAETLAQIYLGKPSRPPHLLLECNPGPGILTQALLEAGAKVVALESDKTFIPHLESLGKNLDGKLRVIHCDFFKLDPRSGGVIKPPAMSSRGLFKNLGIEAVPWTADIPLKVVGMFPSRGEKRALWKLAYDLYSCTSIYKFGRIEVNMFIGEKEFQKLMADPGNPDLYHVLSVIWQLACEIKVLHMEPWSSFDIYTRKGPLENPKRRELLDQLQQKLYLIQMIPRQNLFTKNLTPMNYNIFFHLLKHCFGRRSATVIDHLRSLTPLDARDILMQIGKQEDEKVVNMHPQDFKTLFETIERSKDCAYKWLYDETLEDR

PLA signals per cell (signals per cell) [1]: 4.5 | PLA signals per cell (signals per cell) [2]: 1.2
Substance: mature mitochondrial transcription factor A (TFAM) protein (from UniProt Q00059 43-246)

Reference: patent publication US20250271449A1
